B1: MAPK phosphothreonine lyase (Salmonella enteritidis), P0A2N1 (parent)
chain: MPINRPNLNLNIPPLNIVAAYDGAEIPSTNKHLKNNFNSLHNQMRKMPVSHFKEALDVPDYSGMRQSGFFAMSQGFQLNNHGYDVFIHARRESPQSQGKFAGDKFHISVLRDMVPQAFQALSGLLFSEDSPVDKWKVTDMEKVVQQARVSLGAQFTLYIKPDQENSQYSASFLHKTRQFIECLESRLSENGVISGQCPESDVHPENWKYLSYRNELRSGRDGGEMQRQALREEPFYRLMTE

Variants of: B1
Conditions: with mk07_human MAPK7, Q13164
Sequence of mk07_human MAPK7, Q13164 (Q13164 whole entry, looked up): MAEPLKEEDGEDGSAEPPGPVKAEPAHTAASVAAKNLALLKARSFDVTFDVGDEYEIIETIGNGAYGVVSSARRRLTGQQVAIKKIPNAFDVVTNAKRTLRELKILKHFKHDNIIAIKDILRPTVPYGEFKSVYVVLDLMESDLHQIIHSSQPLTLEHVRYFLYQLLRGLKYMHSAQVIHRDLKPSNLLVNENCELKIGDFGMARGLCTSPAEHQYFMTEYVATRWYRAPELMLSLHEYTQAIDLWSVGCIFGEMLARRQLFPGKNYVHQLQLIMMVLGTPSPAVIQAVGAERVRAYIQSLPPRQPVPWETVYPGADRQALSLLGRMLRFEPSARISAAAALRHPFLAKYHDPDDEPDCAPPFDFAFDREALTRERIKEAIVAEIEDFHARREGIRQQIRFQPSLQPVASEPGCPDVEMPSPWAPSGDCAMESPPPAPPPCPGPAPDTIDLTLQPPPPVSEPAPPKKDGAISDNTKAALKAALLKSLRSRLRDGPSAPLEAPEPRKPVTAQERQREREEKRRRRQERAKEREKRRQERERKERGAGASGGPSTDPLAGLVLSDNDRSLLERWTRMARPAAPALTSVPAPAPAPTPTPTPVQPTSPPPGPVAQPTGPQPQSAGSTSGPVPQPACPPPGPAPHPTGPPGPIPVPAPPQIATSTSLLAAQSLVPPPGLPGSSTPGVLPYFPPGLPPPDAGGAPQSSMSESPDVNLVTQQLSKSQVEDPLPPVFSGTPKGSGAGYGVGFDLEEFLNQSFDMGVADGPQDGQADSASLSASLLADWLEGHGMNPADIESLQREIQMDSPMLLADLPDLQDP

Variant | effect of a mutation on the interaction
MPINRPNLNLNIPPLNIVAAYDGAEIPSTNKHLKNNFNSLHNQMRKMPVSHFKEALDVPDYSGMRQSGFFAMSQGFQLNNHGYDVFIHARRESPQSQGKFAGDKFHISVLRDMVPQAFQALSGLLFSEDSPVDKWAVTDMEKVVQQARVSLGAQFTLYIKPDQENSQYSASFLHKTRQFIECLESRLSENGVISGQCPESDVHPENWKYLSYRNELRSGRDGGEMQRQALREEPFYRLMTE [K136A] | with no effect

Variants of: B1
Conditions: with mk07_human MAPK7, Q13164
Remark: another data set of the same source

Variant | effect of a mutation on the interaction
MPINRPNLNLNIPPLNIVAAYDGAEIPSTNKHLKNNFNSLHNQMRKMPVSHFKEALDVPDYSGMRQSGFFAMSQGFQLNNHGYDVFIHARRESPQSQGKFAGDKFHISVLRDMVPQAFQALSGLLFSEDSPVDKWAVTDMEKVVQQARVSLGAQFTLYIKPDQENSQYSASFLHKTRQFIECLESRLSENGVISGQCPESDVHPENWKYLSYRNELRSGRDGGEMQRQALREEPFYRLMTE [K136A] | causing an interaction
MPINRPNLNLNIPPLNIVAAYDGAEIPSTNKHLKNNFNSLHNQMRKMPVSHFKEALDVPDYSGMRQSGFFAMSQGFQLNNHGYDVFIHARRESPQSQGKFAGDKFAISVLRDMVPQAFQALSGLLFSEDSPVDKWAVTDMEKVVQQARVSLGAQFTLYIKPDQENSQYSASFLHKTRQFIECLESRLSENGVISGQCPESDVHPENWKYLSYRNELRSGRDGGEMQRQALREEPFYRLMTE [H106A;K136A] | disrupting interaction

— IntAct's records for PubMed 18060821
